Measured values from paper PMC7531515.
One block for each binder: values may come before it.

Key:
roledumab (human) [1] = experiment: SEC + native MS
roledumab (human) [2] = experiment: native MS
[3] = molecular target: F(ab’)2 fragment of roledumab (IdeS digestion) (human); experiment: SEC + native MS
[4] = molecular target: F(ab’)2 fragment of roledumab (IdeS digestion) (human); experiment: native MS
[5] = molecular target: Fab fragment of roledumab (IgdE digestion) (human); experiment: SEC + native MS
[6] = molecular target: Fab fragment of roledumab (IgdE digestion) (human); experiment: native MS

relative abundance of dimer peak 1 (UV) (roledumab (human) [1]): 46%
relative abundance of dimer peak 2 (UV) (roledumab (human) [1]): 32%
relative abundance of dimer peak 3 (UV) (roledumab (human) [1]): 13%
stoichiometry N (roledumab (human) [1]): 2
relative abundance of dimer peak 2 (UV) (roledumab (human) [2]): 20%
relative abundance of dimer peak 3 (UV) (roledumab (human) [2]): 13%
relative abundance of dimer peak 4 (UV) (roledumab (human) [2]): 65%
stoichiometry N (roledumab (human) [2]): 2
B1: roledumab (antibody, V domains shown)
VH: QVQLVESGGGVVQPGRSLRLSCTASGFTFKNYAMHWVRQAPAKGLEWVATISYDGRNIQYADSVKGRFTFSRDNSQDTLYLQLNSLRPEDTAVYYCARPVRSRWLQLGLEDAFHIWGQGTMVTVSS
VL: AIRMTQSPSSFSASTGDRVTITCRASQDIRNYVAWYQQKSGKAPKFLIYAASTLQSGVPSRFSGSGSGTDFTLTINSLQSEDFATYYCQQYYNSPPTFGQGTRVEIT
percent HMW species in the isolated HMW fraction (SEC): 85% of HMW species (peak 2)

relative abundance of F(ab’)2 dimer peak 1 (UV) [3]: 32%
relative abundance of F(ab’)2 dimer peak 2 (UV) [3]: 16%
relative abundance of F(ab’)2 dimer peak 3 (UV) [3]: 8%
stoichiometry N [3]: 2
relative abundance of F(ab’)2 dimer (UV) [4]: 54%
stoichiometry N [4]: 2
B2: F(ab’)2 fragment of roledumab (IdeS digestion) (domain or fragment)
VH: QVQLVESGGGVVQPGRSLRLSCTASGFTFKNYAMHWVRQAPAKGLEWVATISYDGRNIQYADSVKGRFTFSRDNSQDTLYLQLNSLRPEDTAVYYCARPVRSRWLQLGLEDAFHIWGQGTMVTVSS
VL: AIRMTQSPSSFSASTGDRVTITCRASQDIRNYVAWYQQKSGKAPKFLIYAASTLQSGVPSRFSGSGSGTDFTLTINSLQSEDFATYYCQQYYNSPPTFGQGTRVEIT

stoichiometry N [5]: 2
relative abundance of Fab dimers (UV) [6]: 10%
stoichiometry N [6]: 2
B3: Fab fragment of roledumab (IgdE digestion) (Fab, V domains shown)
VH: QVQLVESGGGVVQPGRSLRLSCTASGFTFKNYAMHWVRQAPAKGLEWVATISYDGRNIQYADSVKGRFTFSRDNSQDTLYLQLNSLRPEDTAVYYCARPVRSRWLQLGLEDAFHIWGQGTMVTVSS
VL: AIRMTQSPSSFSASTGDRVTITCRASQDIRNYVAWYQQKSGKAPKFLIYAASTLQSGVPSRFSGSGSGTDFTLTINSLQSEDFATYYCQQYYNSPPTFGQGTRVEIT
